This passage reports HUT-78生长抑制率 (CCK-8, 72 h, 100 ng/mL Hum-zap) and 细胞生长抑制率 of HUT-78 (CCK-8, 72 h, 100 ng/mL Hum-zap) results from patent CN102559636A.

The target in this experiment is CD6分子 (CD6 on the cell surface) (human) (UniProt P30203). Briefly: cell-based or functional assay.

The substance 人源化抗CD6单克隆抗体T1h (Itolizumab) (antibody) had an HUT-78生长抑制率 (CCK-8, 72 h, 100 ng/mL Hum-zap) at T1h 0.8 μM of 11.4%; a 细胞生长抑制率 of HUT-78 (CCK-8, 72 h, 100 ng/mL Hum-zap) at T1h 8×10-2, 8×10-3 and 8×10-4 μM above 65%; a 细胞生长抑制率 of HUT-78 (CCK-8, 72 h, 100 ng/mL Hum-zap) at T1h 8×10-5, 8×10-6, 8×10-7 and 8×10-8 μM below 10%.
